Assay results from paper PMC9226502.

B1: MutL^WT (Escherichia coli MutL protein, wild type) [Escherichia coli] / MutS [not stated] (parent)
chain 1: MPIQVLPPQLANQIAAGEVVERPASVVKELVENSLDAGATRIDIDIERGGAKLIRIRDNGCGIKKDELALALARHATSKIASLDDLEAIISLGFRGEALASISSVSRLTLTSRTAEQQEAWQAYAEGRDMNVTVKPAAHPVGTTLEVLDLFYNTPARRKFLRTEKTEFNHIDEIIRRIALARFDVTINLSHNGKIVRQYRAVPEGGQKERRLGAICGTAFLEQALAIEWQHGDLTLRGWVADPNHTTPALAEIQYCYVNGRMMRDRLINHAIRQACEDKLGADQQPAFVLYLEIDPHQVDVNVHPAKHEVRFHQSRLVHDFIYQGVLSVLQQQLETPLPLDDEPQPAPRSIPENRVAAGRNHFAEPAAREPVAPRYTPAPASGSRPAAPWPNAQPGYQKQQGEVYRQLLQTPAPMQKLKAPEPQEPALAANSQSFGRVLTIVHSDCALLERDGNISLLSLPVAERWLRQAQLTPGEAPVCAQPLLIPLRLKVSAEEKSALEKAQSALAELGIDFQSDAQHVTIRAVPLPLRQQNLQILIPELIGYLAKQSVFEPGNIAQWIARNLMSEHAQWSMAQAITLLADVERLCPQLVKTPPGGLLQSVDLHPAIKALKDE
chain 2: MSAIENFDAHTPMMQQYLRLKAQHPEILLFYRMGDFYELFYDDAKRASQLLDISLTKRGASAGEPIPMAGIPYHAVENYLAKLVNQGESVAICEQIGDPATSKGPVERKVVRIVTPGTISDEALLQERQDNLLAAIWQDSKGFGYATLDISSGRFRLSEPADRETMAAELQRTNPAELLYAEDFAEMSLIEGRRGLRRRPLWEFEIDTARQQLNLQFGTRDLVGFGVENAPRGLCAAGCLLQYAKDTQRTTLPHIRSITMEREQDSIIMDAATRRNLEITQNLAGGAENTLASVLDCTVTPMGSRMLKRWLHMPVRDTRVLLERQQTIGALQDFTAGLQPVLRQVGDLERILARLALRTARPRDLARMRHAFQQLPELRAQLETVDSAPVQALREKMGEFAELRDLLERAIIDTPPVLVRDGGVIASGYNEELDEWRALADGATDYLERLEVRERERTGLDTLKVGFNAVHGYYIQISRGQSHLAPINYMRRQTLKNAERYIIPELKEYEDKVLTSKGKALALEKQLYEELFDLLLPHLEALQQSASALAELDVLVNLAERAYTLNYTCPTFIDKPGIRITEGRHPVVEQVLNEPFIANPLNLSPQRRMLIITGPNMGGKSTYMRQTALIALMAYIGSYVPAQKVEIGPIDRIFTRVGAADDLASGRSTFMVEMTETANILHNATEYSLVLMDEIGRGTSTYDGLSLAWACAENLANKIKALTLFATHYFELTQLPEKMEGVANVHLDALEHGDTIAFMHSVQDGAASKSYGLAVAALAGVPKEVIKRARQKLRELESISPNAAATQVDGTQMSLLSVPEETSPAVEALENLDPDSLTPRQALEWIYRLKSLV

Variants of: B1
Experiment: BLI
Settings: with MutS, 100 nM MutS, end-blocked DNA substrate with a single mismatch, read off a plot; for response: top green curve (taken as 150 nM MutL), peak at about 200 s, parent: 3.3

Row | Variant | koff (19 nM MutL, parent: 0.0053) | koff (37 nM MutL, parent: 0.0032) | koff (75 nM MutL, parent: 0.0031) | koff (150 nM MutL, parent: 0.0033) | response
1 | chain 1 H319A | 0.006 s⁻¹ | 0.0046 s⁻¹ | 0.0036 s⁻¹ | 0.0038 s⁻¹ | 2.7 nm
2 | chain 1 H270A H319A | 0.0096 s⁻¹ | 0.0092 s⁻¹ | 0.0082 s⁻¹ | 0.0075 s⁻¹ | 2.1 nm
3 | chain 1 H270A | 0.0063 s⁻¹ | 0.0047 s⁻¹ | 0.0038 s⁻¹ | 0.0035 s⁻¹ | 2.7 nm
